From the supplement of paper PMC9170038 come the findings set out here.

The data set deals with MS2 coat protein. The experiment in a line: apparent KD of MS2 coat protein; designed switch direction (-1 OFF switch, 1 ON switch): 1; higher = weaker reporter binding. In outline: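 On Illumina chips, designed RNA switches with common flanks were made by stalled E. coli RNA polymerase. Titrations with SNAP-549-labelled MS2 coat protein, doubling from 0.7 or 1.5 nM to 3 µM, were done with no input, with 200 uM small-molecule ligand, or with an oligonucleotide input. Apparent KD is the median per design over clusters, from curve fits of normalised cluster fluorescence.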

Where [1] appears, read: input ligand: microRNA oligo, concentration not stated.
[2] abbreviates: Eterna round: R95, input ligand: FMN 200 uM.
[3] abbreviates: Eterna round: R95, input ligand: microRNA oligo, concentration not stated.
Setting [4] is: Eterna round: R95, input ligand: none.

Consider “UUUAGUUGCGGGCAGGAUAUGUAUUAAAAUACAUGAGGAUCACCCAUGUGCGGGUAUAACACCCGACAGAAGGGCCAAUCGCGAC [Laonerce] (Eterna round: R96, puzzle: Same State 2)”, for which the “apparent KD of MS2 coat protein” value is 24.5 nM (input ligand: FMN 200 uM), 256 nM under setting [1] and 278 nM (input ligand: none).

As for “GUAAUCGUUAUAGGAUAUCAUGAGGAUUACCCAUGAGAAGGGUGAUCCCGAUCCAUAUUCAGAAAAUGAAUGUGGAUAGAUUGC [Omei NG1 A] (Eterna round: R96, puzzle: Same State NG 1)”, the “apparent KD of MS2 coat protein” value is 46.8 nM (input ligand: FMN 200 uM), 20.6 nM under setting [1] and 55.4 nM (input ligand: none).

Turning to “UUAAUAAAGUAAGGAUAUACAUGAGGAUCACUCGUAGAAGGUACUAAACAUGAGGAUCACCCAUGUACCGGUCCGUAGACUGGA [Mat - Same State NG 1 - JL mod - D1] (Eterna round: R96, puzzle: Same State NG 1)”, the “apparent KD of MS2 coat protein” value amounted to 844 nM (input ligand: FMN 200 uM), 108 nM under setting [1] and 364 nM (input ligand: none).

Turning to “AAAAUGAGUAUAUGAAAACAAGCUUUUUAACAUGAGGAUCACCCAUGUACUCGUCUUAUAAGCAGUCGAAAGACUGC [hsa-mir-208a sensor: 77] (Eterna round: R96, puzzle: Sensor for hsa-mir-208a)”, the “apparent KD of MS2 coat protein” value by setting is: (input ligand: FMN 200 uM) 94.8 nM; under setting [1], 17.2 nM; (input ligand: none) 96.6 nM.

In the case of “UAGUACAUGCUUUUUGUCCGUCUUAGAUAACAUGAGGAUCACCCAUGUAAGGUGAAAGUUAUAUAGUUUAGGAAGAU [JR_SHM208A_Sub056] (puzzle: Sensor for hsa-mir-208a)”, the “apparent KD of MS2 coat protein” value runs as follows: under setting [2], 309 nM; under setting [3], 424 nM; under setting [4], 331 nM.

On to “CGUAGGUAGCUGGAGGAUAUUCGAGUGGUAACAUGAGGAUCACCCAUGUGGUGAGAGGAACAUGAGGAGAAGGCUAGCUGCCUGC [JL-ss2-3.15 JL mod] (puzzle: Same State 2)”, for which the “apparent KD of MS2 coat protein” value worked out at 118 nM under setting [2], 96.2 nM under setting [3] and 76.9 nM under setting [4].

For the sequence “CCGAUGCAAAUAAAACAUGAGGAUCACCCAUGUGAGACACAUGAGGAUAUGCAGGUCAAAGACUUGCAGAAGGCAUAGCGUCGG [JL SSNG3 3.87] (Eterna round: R96, puzzle: Same State NG 3)”, the “apparent KD of MS2 coat protein” value by setting is: (input ligand: FMN 200 uM) 24.1 nM; under setting [1], 227 nM; (input ligand: none) 270 nM.

In the case of “UUGGGUUUGCGAGGAUAUCGUAUGUGAUUUGAACGAGAAGGCGCUAUUUAAAUUAUUUUAACAUAACAUGAGGAUCACCCAUGU [JR_SSNG1_Sub021] (Eterna round: R96, puzzle: Same State NG 1)”, the “apparent KD of MS2 coat protein” value under setting [1] was determined as 14.2 nM.

For “GAAAGAGGAAGCGAGGAUAUCGUGAAGAGUACAUGAGGAUCACCCAUGUUGUAGGUAAAGGUAGGCGAGAAGGCGCAGGAGAAGA [JR_SS2_Sub0102] (puzzle: Same State 2)”, the “apparent KD of MS2 coat protein” value came out at 23.9 nM under setting [2], 23.7 nM under setting [3] and 33.2 nM under setting [4].

In the case of “AUAAAACAUGAGGAUCACCCAUGUCAACAAAGUCGAGGAUAUGGGCAAAUAAAAUAAGAACCAGAAGGCGAUUAAU [salish99_ss1_r3_035] (puzzle: Same State 1)”, the “apparent KD of MS2 coat protein” value under setting [2] was determined as 23.4 nM, the “apparent KD of MS2 coat protein” value under setting [3] worked out at 97.3 nM and the “apparent KD of MS2 coat protein” value under setting [4] came out at 99 nM.

As to “AGCUAUUAAUCAGGAUAUGGUCACAUGAGGAUCACCCAUGUAUAGAUGAUUAAAUGUGGUCUAAACUAGAAGGGAUUGCUAACA [SameState NG2 #56] (Eterna round: R96, puzzle: Same State NG 2)”, the “apparent KD of MS2 coat protein” value was 414 nM (input ligand: FMN 200 uM), 523 nM under setting [1] and 421 nM (input ligand: none).

For “UAGUGCUGUUGAGAGGAUAUGCGGCGACGGACAUGAGGAUCACCCAUGUUAGCGACAGCGUUGCGGCAGAAGGCUCUGCCCGCUA [Soteed Omei mod 52] (puzzle: Same State 2)”, the “apparent KD of MS2 coat protein” value was 13.1 nM under setting [2], 27.4 nM under setting [3] and 33.3 nM under setting [4].

Regarding “UUGCGGAAUUAAGGAUAUUGAGUACAUAUGUUUAACAUGAGGAUCACCCAUGUGGGUUGCGGUAUCGAGAAGGUAACUUACUAC [salish99_SSNG2_r04_803] (Eterna round: R96, puzzle: Same State NG 2)”, the “apparent KD of MS2 coat protein” value (input ligand: FMN 200 uM) was 110 nM, the “apparent KD of MS2 coat protein” value under setting [1] worked out at 80.5 nM and the “apparent KD of MS2 coat protein” value (input ligand: none) was 102 nM.

Regarding “UACAUGAGGAUCACCCAUGUAGUCCAUGCACCGGACCGAAGCGAGGAUAUGGUCUGCAUCGGUGGCCAGAAGGCGCUUCCAGAA [Eternabot solution 26] (Eterna round: R96, puzzle: Same State NG 3)”, the “apparent KD of MS2 coat protein” value by setting is: (input ligand: FMN 200 uM) 24.7 nM; under setting [1], 21.3 nM; (input ligand: none) 46.7 nM.

Turning to “ACGUGGGUAUCACAGGAUAUACUCAUAACUACAUGAGGAUCACCCAUGUAGCGGUAUUCCGGUGCGUAGAAGGGUGAUGGACCAC [Same State 2 - Mod of Artece] (puzzle: Same State 2)”, the “apparent KD of MS2 coat protein” value under setting [2] worked out at 13.3 nM, the “apparent KD of MS2 coat protein” value under setting [3] was determined as 11.6 nM and the “apparent KD of MS2 coat protein” value under setting [4] came to 19.9 nM.

For “AUGCCCGUAGCACAGGAUAUCCGAGGCAAAACAUGAGGAUCACCCAUGUCAAACGAAAAUCCGAAGGAGAAGGGUGAACGGGCUC [Xeisquorat] (puzzle: Same State 2)”, the “apparent KD of MS2 coat protein” value reads like this: under setting [2], 12 nM; under setting [3], 11.8 nM; under setting [4], 9.59 nM.

Take “UUUGGGUGGCUGGAGGAUAUCCUUGUGGUUACAUGAGGAUCACCCAUGUGCCGCGCGGUGCGCGAGGAGAAGGCUGGCGGCCGUU (puzzle: Same State 2)”: the “apparent KD of MS2 coat protein” value reads like this: under setting [2], 26 nM; under setting [3], 79.5 nM; under setting [4], 151 nM.

For “UAGUGCAUUAGAGGAUAUUCUUACGACACGAGUAAGACAUGAGGAUCACCCAUGUCGUGACAUGGGAAGAAGGCUGAUGUGCUA [Omei SS(NG)2 Bv6] (Eterna round: R96, puzzle: Same State NG 2)”, the “apparent KD of MS2 coat protein” value by setting is: (input ligand: FMN 200 uM) 12 nM; under setting [1], 27.1 nM; (input ligand: none) 35.8 nM.

On to “GUUACAUGAGGAUCACCCAUGUAUGUGUGGGAGUAAGUGUCUUAGGAUAUCUAUUAUUUAAUUAAAGAGAAGGAAGAUUGUUGU [JMF's solution 25] (Eterna round: R96, puzzle: Same State NG 3)”, for which the “apparent KD of MS2 coat protein” value (input ligand: FMN 200 uM) worked out at 115 nM, the “apparent KD of MS2 coat protein” value under setting [1] was 81.2 nM and the “apparent KD of MS2 coat protein” value (input ligand: none) was 102 nM.

In the case of “AGAGAGGAAGCUGAGGAUAUCGUAAGGAGGACAUGAGGAUCACCCAUGUGUGUGGAAUUGGAGGACGAGAAGGCAGAGGAGUGGG [JR_SS2_Sub055] (puzzle: Same State 2)”, the “apparent KD of MS2 coat protein” value under setting [2] turned out to be 33 nM, the “apparent KD of MS2 coat protein” value under setting [3] turned out to be 35.2 nM and the “apparent KD of MS2 coat protein” value under setting [4] stood at 34.6 nM.

As for “UAGAUUAGAAGUUAACAUGAGGAUCACCCAUGUAUUGGAACAGAGGAUAUGCAUGUUUGAUAGUAGCAGAAGGCUGAAGGUGGA [JR_SSNG3_Sub025] (Eterna round: R96, puzzle: Same State NG 3)”, the “apparent KD of MS2 coat protein” value under setting [1] was 68.4 nM.

Consider “GUUACAUGAGGAUCACCCAUGUAUGUGUGGGAGUAAGUGUCUUAGGAUAUCUAUUAUUUAAUUGAAGAGAAGGAAGAUUGUUGU [JMF's solution 26] (Eterna round: R96, puzzle: Same State NG 3)”, for which the “apparent KD of MS2 coat protein” value by setting is: (input ligand: FMN 200 uM) 160 nM; under setting [1], 95 nM; (input ligand: none) 112 nM.

As for “AGUCCAGCCUGAGCUGGACUGAAGCAUGUACAUGAGGAUCACCCAUGUUCAUGUGCAAGCUUUUUGCUCGUCUUAUG [JL-shm-2.03 JL mod] (puzzle: Sensor for hsa-mir-208a)”, the “apparent KD of MS2 coat protein” value under setting [2] stood at 42 nM, the “apparent KD of MS2 coat protein” value under setting [3] was 11.5 nM and the “apparent KD of MS2 coat protein” value under setting [4] amounted to 41.8 nM.

Turning to “GUAAUAAUGUAAGGAUAUACAUGAGGAUUUCUCGUAGAAGGUACAAGACAUGAGGAUCACCCAUGUGUCGCUCAGAAGAGCGUA [Mat - Same State NG 1 - JL mod - D16] (Eterna round: R96, puzzle: Same State NG 1)”, the “apparent KD of MS2 coat protein” value was 279 nM (input ligand: FMN 200 uM), 158 nM under setting [1] and 463 nM (input ligand: none).

For “AGCGUCCACACAGGAUAUCACCUGCACUACAGGUGAGAAGGGUGACCGGUGCGCAAUAACGACAUGAGGAUCACCCAUGUAAAA [Enraquleer] (Eterna round: R96, puzzle: Same State NG 1)”, the “apparent KD of MS2 coat protein” value was 334 nM (input ligand: FMN 200 uM), 93.2 nM under setting [1] and 384 nM (input ligand: none).

“GAGGGACAUGAGGAUCACCCAUGUGGAAAAUUUAAAGGAUAUUAGUGUGGGAAAGUAGGGUAAGAAGGUUGAUUGG [JR_SS1_Sub085] (puzzle: Same State 1)”: the “apparent KD of MS2 coat protein” value came out at 50.2 nM under setting [2], 54.2 nM under setting [3] and 91.3 nM under setting [4].

“UAGAGAGGAAGCGAGGAUAUCGUGGGAGGAACAUGAGGAUCACCCAUGUGUGAUGUUGAGAGGGACGAGAAGGCGCUGGAAAUUA [JR_SS2_Sub081] (puzzle: Same State 2)”: the “apparent KD of MS2 coat protein” value under setting [2] was found to be 99.1 nM, the “apparent KD of MS2 coat protein” value under setting [3] was 126 nM and the “apparent KD of MS2 coat protein” value under setting [4] is 174 nM.

On to “AGCUAGUACCGAGGAUAUACGUACAUGAGGAUCACCCAUGUAUACAUGGUUUAAUGAAACUACAUGUAGAAGGCGGUACUAGCA [Mat - Same State NG 2 - JL mod - D51] (Eterna round: R96, puzzle: Same State NG 2)”, for which the “apparent KD of MS2 coat protein” value reads like this: (input ligand: FMN 200 uM) 23.2 nM; under setting [1], 157 nM; (input ligand: none) 348 nM.
